Measured values reported in the supplement of paper PMC7125110.
± gives the standard error. For some of these results: This sample holds only a part of the variants without activity.

B1: glmS ribozyme (parent)
chain: AUAAAAGCGCCAGAACUACAGAAAUGUAGUUGACGAGGAGGAGGUUUAUCGAAUUUUCGGCGGAUGCCUCCAAA

What was measured:
Conditions in all cases: with glucosamine-6-phosphate
glucosamine-6-phosphate [1] = variants of: B1; test: kcat; higher = faster cleavage; RNA array
Summary of the method: (§1)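 Glucosamine-6-phosphate in HEPES/KCl/Mg(OAc)2 buffer, at 40 μM to 10 mM, was flowed over barcoded ribozyme variants transcribed in situ by E. coli RNA polymerase on sequenced MiSeq chips. Tracking was through a hybridised Cy3 probe at 37 °C. kobs, kcat and KM came from exponential decay fits and weighted Michaelis–Menten fits of normalised per-tile medians.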

glucosamine-6-phosphate [2] = variants of: B1; test: self-cleavage kobs at 2500 uM GlcN6P; higher = faster cleavage; RNA array
Summary of the method: as §1

glucosamine-6-phosphate [3] = variants of: B1; test: self-cleavage kobs at 10000 uM GlcN6P; higher = faster cleavage; RNA array
Summary of the method: as §1

glucosamine-6-phosphate [4] = variants of: B1; test: KM; higher = weaker cofactor use; RNA array
Summary of the method: as §1

glucosamine-6-phosphate [5] = variants of: B1; test: self-cleavage kobs at 40 uM GlcN6P; higher = faster cleavage; RNA array
Summary of the method: as §1

glucosamine-6-phosphate [6] = variants of: B1; test: self-cleavage kobs at 160 uM GlcN6P; higher = faster cleavage; RNA array
Summary of the method: as §1

glucosamine-6-phosphate [7] = variants of: B1; test: self-cleavage kobs at 640 uM GlcN6P; higher = faster cleavage; RNA array
Summary of the method: as §1

Row | Variant | kcat (glucosamine-6-phosphate [1]) [s⁻¹] | self-cleavage kobs at 2500 uM GlcN6P (glucosamine-6-phosphate [2]) [s⁻¹] | self-cleavage kobs at 10000 uM GlcN6P (glucosamine-6-phosphate [3]) [s⁻¹] | KM (glucosamine-6-phosphate [4]) [µM] | self-cleavage kobs at 40 uM GlcN6P (glucosamine-6-phosphate [5]) [s⁻¹] | self-cleavage kobs at 160 uM GlcN6P (glucosamine-6-phosphate [6]) [s⁻¹] | self-cleavage kobs at 640 uM GlcN6P (glucosamine-6-phosphate [7]) [s⁻¹]
1 | U31A A48G | 2.21e-05 ± 4.8e-06 | 3.3e-05 ± 1.1e-05 | 1.74e-05 ± 7.5e-06 |  |  |  | 
2 | U31C C67A | 0.00103 ± 0.00015 | 0.000603 ± 0.00011 | 0.000857 ± 0.0001 | 1970 ± 540 | 2.9e-05 ± 6.9e-06 | 5.29e-05 ± 2.2e-05 | 0.000244 ± 5.6e-05
3 | U30C U46G | 3.27e-05 ± 2.8e-06 |  |  | 5040 ± 1000 |  |  | 
4 | U30A G60A | < 1e-05 |  |  |  | < 1e-05 |  | < 1e-05
5 | U31C G63U | < 1e-05 | < 1e-05 |  |  |  |  | 
6 | U30C C71U | 0.000335 ± 3.4e-05 | 0.000195 ± 1.6e-05 | 0.000307 ± 2.3e-05 | 1530 ± 340 |  | 4.2e-05 ± 6.8e-06 | 9.35e-05 ± 1e-05
7 | U30G G59U | 1.09e-05 ± 1.8e-06 |  |  |  | < 1e-05 |  | 
8 | U31A A42G | 0.0179 ± 0.0037 | 0.00902 ± 0.0026 | 0.0188 ± 0.0042 | 1430 ± 370 | 0.000495 ± 7.3e-05 | 0.00191 ± 0.00054 | 
9 | U31G A64C | 2.01e-05 ± 3.9e-06 |  |  |  |  |  | 
10 | U31G G41A | 0.000638 ± 6.8e-05 | 0.000482 ± 6.9e-05 | 0.000506 ± 9.5e-05 | 1220 ± 220 |  | 7.06e-05 ± 1.2e-05 | 0.000224 ± 2.5e-05
11 | U30A U45A | 0.00916 ± 0.0024 | 0.00515 ± 0.001 | 0.0107 ± 0.0021 | 1290 ± 500 | 0.000369 ± 6.4e-05 | 0.000872 ± 0.00018 | 0.00285 ± 0.00065
12 | U30A U55G | 0.00534 ± 0.002 | 0.00239 ± 0.00033 | 0.00586 ± 0.00095 |  | 0.000142 ± 2.1e-05 | 0.000286 ± 5.5e-05 | 0.00138 ± 0.00022
13 | U31G A33U C70U | 9.54e-05 ± 1.9e-05 |  | 7.8e-05 ± 2e-05 |  |  |  | 
14 | U30G A33C | 4.15e-05 ± 6e-07 |  | 3.4e-05 ± 8.1e-06 | 2230 ± 140 |  |  | 
15 | U31A G41A | 0.000876 ± 0.00042 | 0.00078 ± 0.00012 | 0.000647 ± 0.00014 |  |  | 8.73e-05 ± 1.5e-05 | 0.000163 ± 3.6e-05
16 | U31A U56G | 0.0146 ± 0.0054 | 0.00579 ± 0.0015 | 0.0132 ± 0.0039 | 2950 ± 1500 | 0.000249 ± 5.8e-05 | 0.000532 ± 0.00021 | 0.00335 ± 0.00098

Row | Variant | kcat (glucosamine-6-phosphate [1]) [s⁻¹] | self-cleavage kobs at 2500 uM GlcN6P (glucosamine-6-phosphate [2]) [s⁻¹] | self-cleavage kobs at 10000 uM GlcN6P (glucosamine-6-phosphate [3]) [s⁻¹] | KM (glucosamine-6-phosphate [4]) [µM] | self-cleavage kobs at 40 uM GlcN6P (glucosamine-6-phosphate [5]) [s⁻¹] | self-cleavage kobs at 160 uM GlcN6P (glucosamine-6-phosphate [6]) [s⁻¹] | self-cleavage kobs at 640 uM GlcN6P (glucosamine-6-phosphate [7]) [s⁻¹]
17 | U30A U46C | 0.000377 ± 6.9e-05 |  | 0.000332 ± 7e-05 | 1730 ± 750 |  |  | 0.000117 ± 3.5e-05
18 | U30A U46A | 0.00042 ± 5.2e-05 | 0.000372 ± 0.0001 | 0.000363 ± 5.1e-05 |  |  |  | 
19 | U30A U46G | 0.000804 ± 0.00016 | 0.000638 ± 0.00022 | 0.000702 ± 8.5e-05 |  | 4.09e-05 ± 1.5e-05 |  | 
20 | U31A G32A | 0.00184 ± 0.00083 | 0.000381 ± 7.7e-05 | 0.0014 ± 0.00017 |  |  | 6.66e-05 ± 1.2e-05 | 0.000222 ± 3.2e-05
21 | U31A G32U | 0.00113 ± 0.00055 | 0.000256 ± 4.4e-05 | 0.0006 ± 0.00016 |  |  | 4.59e-05 ± 2e-05 | 6.96e-05 ± 1.7e-05
22 | U30A G38A | < 1e-05 |  | < 1e-05 |  | < 1e-05 |  | 
23 | U31A U45G | 0.0028 ± 0.00084 | 0.00203 ± 0.00033 | 0.00194 ± 0.00049 | 1730 ± 710 | 7.39e-05 ± 1.2e-05 | 0.000168 ± 4e-05 | 0.000882 ± 0.00014
24 | U31A U45C | 0.00168 ± 0.00049 | 0.000998 ± 0.00023 | 0.00116 ± 0.00024 | 3380 ± 1600 |  |  | 0.000288 ± 8.9e-05
25 | U30G G32A | 0.00542 ± 0.0022 | 0.00123 ± 0.0003 | 0.00438 ± 0.00065 | 4720 ± 2300 | 5.91e-05 ± 1.1e-05 | 0.00017 ± 2.3e-05 | 0.000709 ± 9.2e-05
26 | U30G U56A | 0.00811 ± 0.0019 | 0.003 ± 0.00057 | 0.00771 ± 0.0011 | 2730 ± 850 | 0.000125 ± 1.6e-05 | 0.000498 ± 0.0001 | 0.00146 ± 0.00024
27 | U31A G66A | 0.0119 ± 0.0032 | 0.00305 ± 0.00048 | 0.00767 ± 0.0017 | 6540 ± 2200 | 0.000105 ± 3.4e-05 | 0.000259 ± 6.1e-05 | 0.00114 ± 0.00021
28 | U31A C58G | 0.000589 ± 0.00022 | 3.87e-05 ± 1.3e-05 | 0.00013 ± 1.9e-05 |  |  |  | 
29 | U30A U69A | 5.09e-05 ± 2.2e-05 | 9.65e-05 ± 1.8e-05 | 3.22e-05 ± 1.1e-05 |  |  | 5.73e-05 ± 2.4e-05 | 
30 | U31G C71U | 0.0144 ± 0.0067 | 0.00836 ± 0.0019 | 0.0107 ± 0.0016 |  | 0.000277 ± 3.1e-05 | 0.000479 ± 8.2e-05 | 0.00235 ± 0.00045
31 | U31G A39U | 0.0136 ± 0.0028 | 0.00485 ± 0.00084 | 0.0106 ± 0.0011 | 3520 ± 930 | 0.000179 ± 1.6e-05 | 0.000492 ± 7.3e-05 | 0.00183 ± 0.00041
